According to patent US20250282887A1 (Amgen, published 2025):

How the values were obtained:
[1] = biological target: T1, Human MAGEB2 (Melanoma-associated antigen B2) (human, UniProt O15479 1-319); assay: IHC on FFPE U266B1 cells (endogenous MAGEB2)
T1 construct: Intracellular antigen detected by IHC in FFPE material: CHO cells transfected with human MAGEB2 (mCherry vector with Myc/DDK tags, or ORF without tags)
T1 sequence: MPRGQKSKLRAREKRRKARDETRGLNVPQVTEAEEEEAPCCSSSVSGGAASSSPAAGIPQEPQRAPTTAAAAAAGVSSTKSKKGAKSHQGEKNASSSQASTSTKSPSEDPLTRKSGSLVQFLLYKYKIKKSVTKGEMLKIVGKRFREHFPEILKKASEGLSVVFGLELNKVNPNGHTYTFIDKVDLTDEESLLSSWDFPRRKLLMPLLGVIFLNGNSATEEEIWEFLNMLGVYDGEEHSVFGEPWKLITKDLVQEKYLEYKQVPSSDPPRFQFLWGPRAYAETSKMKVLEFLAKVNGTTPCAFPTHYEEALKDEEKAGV
Experimental: (§1) FFPE samples were sectioned at 4 μm and mounted on positive charged glass slides. After mounting, paraffin sections were air-dried at room temperature. FFPE TMA samples were received as freshly sectioned and mounted on glass slides. The fully automated IHC assay was performed on a Discovery Ultra Stainer (Ventana Medical Systems, Tucson, AZ) using Ventana Anti-Rabbit HQ (cat #760-4815), Ventana Anti-HQ HRP (cat #760-4820), and Ventana Antibody Diluent with Casein (cat #760-219) (Ventana Medical Systems, Tucson, AZ). The slides were baked on the Discovery Ultra Stainer at 60° C. for 8 minutes, de-paraffinized with Ventana Discovery wash (cat #950-510) for 3 cycles (8 minutes each) at 69° C., and underwent cell conditioning (target retrieval) at 95° C. for 16 minutes (for cell arrays) or 32 minutes (tissues or TMAs) in CC1 buffer (cat #950-500). Following this, slides were incubated with Background Sniper (cat #BS966M, Biocare Medical, Pacheco, CA) in a Ventana Option Prep kit (cat #771-751) for 28 minutes, incubated with CM inhibitor (a part of the Ventana DAB kit cat #760-159) for 12 minutes, and incubated for 1 h at RT with MAGE-B2 antibody diluted with Ventana diluent with Casein in a Ventana Prep kit (cat #770-001) (working concentration at 0.1 μg/ml for cell pellet, or 1-5 ug/ml for tissues) or with a matched concentration of isotype control Rabbit IgG1 antibody. Following this, slides were incubated with the Ventana Anti-Rabbit HQ (cat #760-4815) for 28 minutes at RT, Ventana Anti-HQ HRP (cat #760-4820) for 28 minutes at RT, and signals detected with Ventana DAB chromogen kit (cat #760-159) for 5 minutes at RT. Slides were counterstained with Ventana Hematoxylin II (cat #5266726001) for 8 minutes and Ventana Bluing reagent (cat #526676900) for 4 minutes. Slides were coverslipped and digitized using an Aperio AT2 scanner (Leica Biosystems Inc, Buffalo Grove, IL).

[2] = biological target: T1, Human MAGEB2 (Melanoma-associated …); assay: IHC on FFPE CFPAC-1 cells (endogenous MAGEB2)
Experimental: as §1

human MAGEA8 = biological target: T2, human MAGEA8 (human, UniProt P43361 1-318); assay: IHC, FFPE CHO cells transfected with human MAGEA8
T2 construct: whole, on cells; FFPE cell pellets
T2 sequence (looked up): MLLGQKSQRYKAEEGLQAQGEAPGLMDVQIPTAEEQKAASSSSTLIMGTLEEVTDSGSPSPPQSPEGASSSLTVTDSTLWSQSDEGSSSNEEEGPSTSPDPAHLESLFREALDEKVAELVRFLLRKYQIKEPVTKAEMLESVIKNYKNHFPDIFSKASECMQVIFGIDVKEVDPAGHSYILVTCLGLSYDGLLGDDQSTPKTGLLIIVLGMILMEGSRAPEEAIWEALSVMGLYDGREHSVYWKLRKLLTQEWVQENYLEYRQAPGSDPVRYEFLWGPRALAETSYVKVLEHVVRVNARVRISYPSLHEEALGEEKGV
Excerpt: Negative control cells included parental Chinese hamster ovary (CHO) cells, CHO cells stably transfected with mCherry Vector Control (minus Myc/DDK tags), CHO cells stably transfected with mCherry-human DCAF4L2 (plus Myc/DDK tags). The cross-reactivity control cells included CHO cells transfected with mCherry Vector Control (plus Myc/DDK tags) with one of the human MAGE-B or MAGE-A family members (MAGEA1, MAGEA2, MAGEA3, MAGEA4, MAGEA5, MAGEA6, MAGEA8, MAGEA9, MAGEA11, MAGEA12, MAGEB1, MAGEB3, MAGEB4, MAGEB5, MAGEB6, MAGEB10, MAGEB16, MAGEB17, MAGEB18). Positive control cell lines included CHO cells transfected with mCherry Vector (plus Myc/DDK tags) with human MAGE-B2 or CHO cells transfected with mCherry Vector (open reading frame (ORF); minus Myc/DDK tags) with human MAGEB2, and thirteen human cancer cell lines with known endogenous RNA expression level of MAGEB2 (U266B1, T98G, KMM-1, U20S, CFPAC-1, SCaBER, UACC-257, CFPAC-1, VMRC-LCD, NCI-H1703, UM-UC-3, NCI-H1395, NCIH82).
as §1, with “antibody.” for “antibody. Following this, slides were incubated with the Ventana Anti-Rabbit HQ (cat #760-4815) for 28 minutes at RT, Ventana Anti-HQ HRP (cat #760-4820) for 28 minutes at RT, and signals detected with Ventana DAB chromogen kit (cat #760-159) for 5 minutes at RT. Slides were counterstained with Ventana Hematoxylin II (cat #5266726001) for 8 minutes and Ventana Bluing reagent (cat #526676900) for 4 minutes. Slides were coverslipped and digitized using an Aperio AT2 scanner (Leica Biosystems Inc, Buffalo Grove, IL).”

Binder | IHC % Frequency [1] [%] | IHC Intensity [1] | IHC % Frequency [2] [%] | binding result (human MAGEA8)
1C3 (antibody, V domains shown, also called MAGE-B2 (IC3); anti-MAGEB2 antibody 1C3) VH: QSLEESGGGLVQPEGSLTLTCTAFGVTLTNYYICWVRQAPGKGLEWVGCIDNANGRTYYASWAKGRFTISKTSSTTGTLQMTSLTAADTATYFCARSLATPLWGPGTLVTVSS VL: DIVMTQTPSSVEAAVGGTVTIKCQASQNISSYLAWYQQKPGQPPKLLIYRASTLASGVPSRFKGSGSGTQFTLTISDLECADAATYYCQSYDDSRSSNFFYAFGGGTEVVVKG | 90 | 2 | 0 | no binding (tested: 0.1 µg/ml)
4G17 (antibody, IgG1, V domains shown, Rabbit monoclonal IgG1; Tested as supernatant and as small batch purified antibody; also called MAGE-B2 (4G17); anti-MAGEB2 antibody 4G17) VH: QSLEESGGGLVQPEGSLTLTCTASGVTLSNYYICWVRQAPGKGLEWIGCIDNVNGRTYYASWAKGRFTISKTSSTTGTLQMTSLTAADTATYFCARSLATPLWGPGTLVTVSS VL: DIVMTQTPASVEAAVGGTVTIKCQASQNIDSYLAWYQQKPGQPPKLLIYRASTLASGVPSRFKGSGSGTEFTLTISDLECADAATYYCQSYDDSRSSSFFYGFGGGTEVVVK | 80 | 2 | 0 | no binding (tested: 0.1 µg/ml)
1J15 (antibody, IgG1, V domains shown, Rabbit monoclonal IgG1; Tested as supernatant and as small batch purified antibody; also called MAGE-B2 (IJ15); anti-MAGEB2 antibody 1J15) VH: QSLEESGGGLVQPEGSLTLTCTAFGFTLNNYYICWVRQAPGKGLEWIACIDNANGRTYYASWAKGRFTISKTSSTTVTLQMTSLTAADTATYFCARSLSTPLWGPGTLVTVSS VL: DIVMTQTPASVEAAVGGTVTIKCQASQSISSYLSWYQQKPGQPPKLLIYRASTLASGVPSRFRGSGSGTQFTLTISDLECADAATYYCQSYDDSSDNNFFYGFGGGTEVVVR | 90 | 1 | 0 | no binding (tested: 0.1 µg/ml)
1I14 (antibody, V domains shown, also called MAGE-B2 (1i14)) VH: QSVEESGGRLVTPGTPLTLTCTISGFSLSSYAMSWVRQAPGKGLEWIGSIGGGGSAVYASWAKGRFTISKTSTTVDLRITSPTTEDTAMYFCGRGFYSIDLWGPGTLVTVSS VL: DVVMTQTPASVEATVGGTVTIKCQSSQSVYDNNALAWYQQNAGQRPRLLIYGASTLASGVPSRFSASGSGTEFTLTISDLECADAATYYCQCTYYVSSYQNDFGGGTEVVVKG | 90 | 3 | 0 | no binding (tested: 0.1 µg/ml)
